Test results taken from publication PMC5792622 (Nature Communications, 2018).

Molecular target: the molecule itself
Assay: crystal structure

B1: hexon protein of HAdV5^HVR7 (human adenovirus type 5 with four mutations in hypervariable region 7 of the hexon) (natural protein)
chain: MATPSMMPQWSYMHISGQDASEYLSPGLVQFARATETYFSLNNKFRNPTVAPTHDVTTDRSQRLTLRFIPVDREDTAYSYKARFTLAVGDNRVLDMASTYFDIRGVLDRGPTFKPYSGTAYNALAPKGAPNPCEWDEAATALEINLEEEDDDNEDEVDEQAEQQKTHVFGQAPYSGINITKEGIQIGVEGQTPKYADKTFQPEPQIGESQWYETEINHAAGRVLKKTTPMKPCYGSYAKPTNENGGQGILVKQQNGKLESQVEMQFFSTTEATAGNGDNLTPKVVLYSEDVDIETPDTHISYMPTIKEGNSRELMGQQSMPNRPNYIAFRDNFIGLMYYNSTGNMGVLAGQASQLNAVVDLQDRNTELSYQLLLDSIGDRTRYFSMWNQAVDSYDPDVRIIENHGTEDELPNYCFPLGGVGNNSTYTKVKPKTGQENGWEKDATEFSDKNEIRVGNNFAMEINLNANLWRNFLYSNIALYLPDKLKYSPSNVKISDNPNTYDYMNKRVVAPGLVDCYINLGARWSLDYMDNVNPFNHHRNAGLRYRSMLLGNGRYVPFHIQVPQKFFAIKNLLLLPGSYTYEWNFRKDVNMVLQSSLGNDLRVDGASIKFDSICLYATFFPMAHNTASTLEAMLRNDTNDQSFNDYLSAANMLYPIPANATNVPISIPSRNWAAFRGWAFTRLKTKETPSLGSGYDPYYTYSGSIPYLDGTFYLNHTFKKVAITFDSSVSWPGNDRLLTPNEFEIKRSVDGEGYNVAQCNMTKDWFLVQMLANYNIGYQGFYIPESYKDRMYSFFRNFQPMSRQVVDDTKYKDYQQVGILHQHNNSGFVGYLAPTMREGQAYPANFPYPLIGKTAVDSITQKKFLCDRTLWRIPFSSNFMSMGALTDLGQNLLYANSAHALDMTFEVDPMDEPTLLYVLFEVFDVVRVHRPHRGVIETVYLRTPFSAGNATT
modifications: biotin (NHS-biotin), for the SPR only
notes: also called HAdV5^HVR7 hexon
With B1 the “stoichiometry N” value was 3.
